Tests used:
human IL-6 = human IL-6 (human, UniProt P05231 30-212, limits assumed); assay: ELISA, human IL-6 coated at 1 µg/mL, HRP goat anti-mouse Fab, A450
Experimental: (§1) After washed four times with PBST, HRP-labeled goat anti-mouse Fab secondary antibodies were added and incubated at room temperature for 1 h. After washed four times with PBST, TMB colored solution was added and color developing for 10 min at room temperature. The absorption value at 450 nm was read by the enzyme maker. The data were analyzed and plotted using Origin pro 9 software.

human CNTF = molecular target: T1, human CNTF (human, UniProt P26441 1-200, limits assumed); assay: ELISA, human CNTF coated at 1 µg/mL, HRP goat anti-mouse Fab, A450
T1 sequence (looked up): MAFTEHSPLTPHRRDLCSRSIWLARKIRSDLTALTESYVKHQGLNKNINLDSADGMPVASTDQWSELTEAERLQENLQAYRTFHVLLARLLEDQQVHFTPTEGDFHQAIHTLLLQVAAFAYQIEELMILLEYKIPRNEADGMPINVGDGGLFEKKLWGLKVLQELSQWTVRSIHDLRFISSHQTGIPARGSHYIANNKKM
Experimental: as §1

human LIF protein [1] = molecular target: T2, human LIF protein (human, UniProt P15018 23-202); assay: ELISA, human LIF coated at 1 µg/mL, A450
T2 construct: Bought recombinant protein (Sino Biological / Yiqiao Shenzhou 14890-HNAH) in most assays; also called recombinant human LIF protein; rhLIF
Experimental: The recombinant human LIF protein was diluted to 1 μg/mL, was coated on the enzyme label plate, 100 μL of the protein was added into every well, and incubated overnight in 4° C. The enzyme label plates were taken out next day, and the liquid was discarded, and were washed with PBST three times and blocked with 2% BSA in PBS for 1 h at room temperature, then washed with PBST three times, and added anti-human LIF antibodies 38E10E1C11, 5D8 and P36-033 at different concentrations and incubated for 1 h at room temperature. The liquid was discarded, and the plates were washed with PBST four times. The plates were added with HRP-labeled goat anti-mouse Fab antibody or goat anti-human FC antibody and incubated for 1 h at room temperature. Then the liquid was discarded, and the plates were washed four times with PBST and incubated with TMB colored solution in 10 minutes at room temperature. Stop color development by adding 2 mol/L H₂SO₄, and the absorption value at 450 nm is quantitated using an automated plate photometer, and the results were shown in FIG. 1.

[2] = molecular target: T3, Mut3 heterozygous LIF protein (human LIF with residues 182-202 of …, UniProt P15018 23-201, limits assumed); assay: western blot of 293T culture supernatants, primary antibody 38E10E1C11, HRP goat anti-mouse Fab
T3 construct: Secreted into the supernatant of transfected 293T cells; also called Mut3 protein

[3] = molecular target: T4, Mut4 heterozygous LIF protein (human LIF with residues 166-202 of …, UniProt P15018 23-201, limits assumed); assay: as above
T4 construct: Secreted into the supernatant of transfected 293T cells; also called Mut4 protein

human LIF protein [4] = molecular target: T2, human LIF protein; assay: competition ELISA, LIF coated, competitor LIFR-Fc 0.6125 ug/mL detected with anti-human Fc
human LIF protein [5] = molecular target: T2, human LIF protein; assay: competition ELISA: human LIF coated at 1 µg/mL, LIFR-Fc 0.6125 µg/mL added together with the antibody, A450
Experimental: The recombinant human LIF protein was coated on the enzyme label plate at a concentration of 1 μg/mL, LIFR protein (expressed fusedly with human FC) at a concentration of 0.6125 μg/mL was added (50 μL/well), and the anti-human LIF antibodies 38E10E1C11, P36-033 and 38E10E1C11R which is recombinantly expressed by CHO cells (SEQ ID NOs: 41 and 43) at different concentrations simultaneously were added separately (50 μL/well) and incubated for 2 h at room temperature. After washed four times with PBST, incubated with HRP-labeled goat anti-mouse FC secondary antibody for 1 h at room temperature. Then the plates were washed four times with PBST and added with TMB coloured solution in for 10 minutes. The absorption value at 450 nm is quantitated using an enzyme-labelling measuring instrument, and the data was analyzed and plotted using Origin pro 9 software.

human OSM = molecular target: T5, human OSM (human, UniProt P13725 26-221, limits assumed); assay: ELISA, human OSM coated at 1 µg/mL, HRP goat anti-mouse Fab, A450
T5 sequence (looked up): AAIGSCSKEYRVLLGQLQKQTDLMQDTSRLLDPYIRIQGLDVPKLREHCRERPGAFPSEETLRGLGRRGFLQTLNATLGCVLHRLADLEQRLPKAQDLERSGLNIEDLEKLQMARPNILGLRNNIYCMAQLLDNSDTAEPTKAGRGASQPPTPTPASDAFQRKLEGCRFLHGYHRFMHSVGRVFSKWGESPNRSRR
Experimental: as §1

[6] = molecular target: recombinant machin LIF protein (machin, UniProt A0A2K5UCA8 23-202); assay: ELISA, machin LIF coated at 0.5 µg/mL, A450
Sequence of recombinant machin LIF protein (A0A2K5UCA8 entry or part of it limits assumed): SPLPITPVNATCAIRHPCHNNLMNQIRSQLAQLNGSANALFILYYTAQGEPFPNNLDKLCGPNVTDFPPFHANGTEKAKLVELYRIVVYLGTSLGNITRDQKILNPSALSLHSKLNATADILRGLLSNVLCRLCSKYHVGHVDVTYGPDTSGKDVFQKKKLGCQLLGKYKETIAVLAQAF
Experimental: The recombinant machin LIF protein (purchased from Sino biological) was diluted to 0.5 μg/mL, and was coated on the enzyme label plate, 100 μL of protein was added into every well, and incubated overnight in 4° C. The enzyme label plates were taken out next day, and the liquid was discarded, and were washed with PBST three times and blocked with 2% BSA in PBS for 1 h at room temperature, then washed with PBST three times, and added anti-human LIF antibodies 38E10E1C11, 5D8 and P36-033 at different concentrations and incubated for 1 h at room temperature. The liquid was discarded, and the plates were washed with PBST four times. The plates were added with HRP-labeled goat anti-mouse Fab antibody or goat anti-human FC antibody and incubated for 1 h at room temperature. Then the liquid was discarded, and the plates were washed with PBST four times and incubated with TMB colored solution in 10 minutes at room temperature. Stop color development by adding 2 mol/L H₂SO₄, and the absorption value at 450 nm is quantitated using an automated plate photometer, and the results were shown in FIG. 3.

Sequence of human IL-6 (P05231 30-212 limits assumed): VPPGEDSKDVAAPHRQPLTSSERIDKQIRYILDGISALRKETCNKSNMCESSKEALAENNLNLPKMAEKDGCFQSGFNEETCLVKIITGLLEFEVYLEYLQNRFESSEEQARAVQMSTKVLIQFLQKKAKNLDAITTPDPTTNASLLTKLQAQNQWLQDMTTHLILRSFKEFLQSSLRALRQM

B1: 38E10E1C11 antibody (antibody, mouse IgG1, kappa)
heavy: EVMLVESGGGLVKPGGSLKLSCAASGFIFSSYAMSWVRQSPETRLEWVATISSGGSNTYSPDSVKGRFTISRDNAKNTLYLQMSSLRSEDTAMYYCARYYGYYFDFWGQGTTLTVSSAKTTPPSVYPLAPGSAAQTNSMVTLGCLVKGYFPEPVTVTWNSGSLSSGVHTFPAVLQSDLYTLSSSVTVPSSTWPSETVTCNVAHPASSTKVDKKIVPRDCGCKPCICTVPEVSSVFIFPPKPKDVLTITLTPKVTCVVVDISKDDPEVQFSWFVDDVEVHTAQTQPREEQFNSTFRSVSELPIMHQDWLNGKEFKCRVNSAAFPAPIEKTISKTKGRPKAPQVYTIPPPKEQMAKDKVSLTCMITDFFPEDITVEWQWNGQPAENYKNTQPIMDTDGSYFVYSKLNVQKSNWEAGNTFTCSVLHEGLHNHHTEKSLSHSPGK
light: DIHMTQSPASLSASVGETVTITCRASENIYSYLAWYQQKQGKSPQLLVYNAKTLAEGVPSRFSGSGSGTQFSLKINSLQPEDFGSYYCQHHYVTPLTFGAGTKLELKRADAAPTVSIFPPSSEQLTSGGASVVCFLNNFYPKDINVKWKIDGSERQNGVLNSWTDQDSKDSTYSMSSTLTLTKDEYERHNSYTCEATHKTSTSPIVKSFNRNEC
notes: Mouse IgG1, kappa light chain; also called 38E10E1C11 mAb; mAb38E10E1C11
binding result (human IL-6): no binding (tested: 25 ug/ml) | binding result (human CNTF): no binding (tested: 25 ug/ml) | EC50 (read off the curve) (human LIF protein [1]): ~0.05 µg/mL | binding result [2]: binds | binding result [3]: no binding | IC50 (human LIF protein [4]): 0.074 µg/mL | IC50 (read off the curve) (human LIF protein [5]): ~0.1 µg/mL | binding result (human OSM): no binding (tested: 25 ug/ml) | EC50 (read off the curve) [6]: ~0.07 µg/mL

— US20210403582A1 (JACOBIO PHARMACEUTICALS, published 2021)
